Consider two sequences from patent US9327008B2, “Cell-permeant peptide-based inhibitor of kinases” (Purdue Research Foundation, priority 2008, dated 2016).

Common to all, as to assay type: biochemical
The target in one assay is T1, JAK3 (Homo sapiens, UniProt P52333).
T1 construct: purchased Millipore (assay service)
T1 sequence (P52333 1-1124): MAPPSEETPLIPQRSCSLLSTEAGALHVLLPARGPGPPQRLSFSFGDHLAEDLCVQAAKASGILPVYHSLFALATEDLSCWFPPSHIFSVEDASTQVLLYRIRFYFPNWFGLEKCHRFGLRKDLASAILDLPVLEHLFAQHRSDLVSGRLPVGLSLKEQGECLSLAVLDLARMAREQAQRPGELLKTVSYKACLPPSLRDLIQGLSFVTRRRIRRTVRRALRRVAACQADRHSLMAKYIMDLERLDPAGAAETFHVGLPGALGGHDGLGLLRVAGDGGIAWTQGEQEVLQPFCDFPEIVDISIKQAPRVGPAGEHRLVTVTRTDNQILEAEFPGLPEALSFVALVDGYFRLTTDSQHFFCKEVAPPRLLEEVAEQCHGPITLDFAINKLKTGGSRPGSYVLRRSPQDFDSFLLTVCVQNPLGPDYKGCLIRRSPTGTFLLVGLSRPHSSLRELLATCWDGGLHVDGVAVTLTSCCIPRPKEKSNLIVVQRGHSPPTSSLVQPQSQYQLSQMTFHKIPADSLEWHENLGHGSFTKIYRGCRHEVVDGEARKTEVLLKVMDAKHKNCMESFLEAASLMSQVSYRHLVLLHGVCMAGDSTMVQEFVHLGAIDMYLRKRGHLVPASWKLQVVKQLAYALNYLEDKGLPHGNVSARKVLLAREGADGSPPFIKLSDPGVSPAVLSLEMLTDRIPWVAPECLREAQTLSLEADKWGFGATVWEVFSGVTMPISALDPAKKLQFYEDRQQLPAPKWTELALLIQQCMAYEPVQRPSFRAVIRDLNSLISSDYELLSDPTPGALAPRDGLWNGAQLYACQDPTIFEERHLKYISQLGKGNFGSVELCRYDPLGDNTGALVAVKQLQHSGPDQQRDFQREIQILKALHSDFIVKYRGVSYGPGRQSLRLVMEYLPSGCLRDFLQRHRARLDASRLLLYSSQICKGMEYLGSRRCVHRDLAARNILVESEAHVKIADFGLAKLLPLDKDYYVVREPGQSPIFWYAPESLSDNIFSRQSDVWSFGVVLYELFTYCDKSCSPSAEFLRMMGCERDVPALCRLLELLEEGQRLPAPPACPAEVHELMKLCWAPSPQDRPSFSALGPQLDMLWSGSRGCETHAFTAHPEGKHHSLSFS
Put plainly: Millipore radiometric kinase activity assay, JAK3 (h). As to the method: (§1) A commercial radiometric assay service (Millipore, Billerica, Mass.) was used to test the specificity and potency of peptides containing a coupled transduction domain and therapeutic domain, hereinafter “complete peptides”). In these assays, if the kinase is not inhibited by an inhibitor peptide, a positively charged substrate is phosphorylated with a radiolabeled phosphate group from an ATP.
(§2) In a final reaction volume of 25 μL, JAK3 (h) (5-10 mU) is incubated with 8 mM MOPS pH 7.0, 0.2 mM EDTA, 500 μM […] [SEQ ID NO: 58], 10 mM MgAcetate and [γ-^33P-ATP] (specific activity approx. 500 cpm/pmol, concentration as required). The reaction is initiated by the addition of the MgATP mix. After incubation for 40 minutes at room temperature, the reaction is stopped by the addition of 5 μL of a 3% phosphoric acid solution. 10 μL of the reaction is then spotted onto a P30 filtermat and washed three times for 5 minutes in 75 mM phosphoric acid and once in methanol prior to drying and scintillation counting.
(§3) IC50 values for inhibitor peptides were determined using Millipore's IC50Profiler Express service. The IC50 value was estimated from a 10-point curve of one-half log dilutions. For peptides tested for specificity, the concentration of the peptides that inhibited approximately 95% of MK2 activity was chosen to profile against a battery of kinases related to MK2, cell viability, or human disease from MilliporeKinaseProfiler service. In both assays, compounds were supplied in dimethylsulfoxide (DMSO). Every kinase activity measurement was conducted in duplicate.
(§4) Therapeutic inhibitor peptides were assayed for activity against human kinases related to MK2, cell viability, or human disease. The assays were performed using concentrations of therapeutic inhibitor peptides that yielded 2% to 8% of normal MK2 activity. Error is reported as the standard deviation between 2 samples, and “c” is rat AMPK whereas all other kinases used are human kinases.

The target of the next assay is T2, PhKγ2 (Homo sapiens, UniProt P15735).
T2 construct: purchased Millipore (radiometric assay service)
T2 sequence (P15735 1-406): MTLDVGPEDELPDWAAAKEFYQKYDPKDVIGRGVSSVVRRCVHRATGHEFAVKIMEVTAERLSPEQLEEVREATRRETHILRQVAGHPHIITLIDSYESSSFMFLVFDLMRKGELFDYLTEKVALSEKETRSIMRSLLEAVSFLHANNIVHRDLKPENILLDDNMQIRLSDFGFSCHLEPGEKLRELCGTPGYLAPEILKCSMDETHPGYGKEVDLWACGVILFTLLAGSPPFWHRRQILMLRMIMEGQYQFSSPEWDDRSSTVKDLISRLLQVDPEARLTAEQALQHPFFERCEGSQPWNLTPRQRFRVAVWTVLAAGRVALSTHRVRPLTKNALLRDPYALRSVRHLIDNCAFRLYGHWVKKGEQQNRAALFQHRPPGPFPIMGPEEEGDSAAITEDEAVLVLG
Put plainly: Millipore radiometric kinase activity assay, PhKγ2 (h). Here is the method:
as §1
as §2, with “μL, PhKγ2” for “μL, JAK3”, “EDTA, 250” for “EDTA, 500”, “NO: 52],” for “NO: 58],”
as §3, §4

Another assay concerns the target T3, Ret (Homo sapiens, UniProt P07949).
T3 construct: purchased Millipore (radiometric assay service)
The experiment in a line: Millipore radiometric kinase activity assay, Ret (h). The settings on record: peptide 100 μM. Here is the method:
as §1
In a final reaction volume of 25 μL, Ret (h) (5-10 mU) is incubated with 8 mM MOPS pH 7.0, 0.2 mM EDTA, 250 μM […] [SEQ ID NO: 56], 10 mM MgAcetate and [γ-^33P-ATP] (specific activity approx. 500 cpm/pmol, concentration as required). The reaction is initiated by the addition of the MgATP mix. After incubation for 40 minutes at room temperature, the reaction is stopped by the addition of 5 μl, of a 3% phosphoric acid solution. 10 μL of the reaction is then spotted onto a P30 filtermat and washed three times for 5 minutes in 75 mM phosphoric acid and once in methanol prior to drying and scintillation counting.
IC50 values for inhibitor peptides were determined using Millipore's IC50Profiler Express service. The IC50 value was estimated from a 10-point curve of one-half log dilutions. […]

T3 sequence (P07949 29-1114): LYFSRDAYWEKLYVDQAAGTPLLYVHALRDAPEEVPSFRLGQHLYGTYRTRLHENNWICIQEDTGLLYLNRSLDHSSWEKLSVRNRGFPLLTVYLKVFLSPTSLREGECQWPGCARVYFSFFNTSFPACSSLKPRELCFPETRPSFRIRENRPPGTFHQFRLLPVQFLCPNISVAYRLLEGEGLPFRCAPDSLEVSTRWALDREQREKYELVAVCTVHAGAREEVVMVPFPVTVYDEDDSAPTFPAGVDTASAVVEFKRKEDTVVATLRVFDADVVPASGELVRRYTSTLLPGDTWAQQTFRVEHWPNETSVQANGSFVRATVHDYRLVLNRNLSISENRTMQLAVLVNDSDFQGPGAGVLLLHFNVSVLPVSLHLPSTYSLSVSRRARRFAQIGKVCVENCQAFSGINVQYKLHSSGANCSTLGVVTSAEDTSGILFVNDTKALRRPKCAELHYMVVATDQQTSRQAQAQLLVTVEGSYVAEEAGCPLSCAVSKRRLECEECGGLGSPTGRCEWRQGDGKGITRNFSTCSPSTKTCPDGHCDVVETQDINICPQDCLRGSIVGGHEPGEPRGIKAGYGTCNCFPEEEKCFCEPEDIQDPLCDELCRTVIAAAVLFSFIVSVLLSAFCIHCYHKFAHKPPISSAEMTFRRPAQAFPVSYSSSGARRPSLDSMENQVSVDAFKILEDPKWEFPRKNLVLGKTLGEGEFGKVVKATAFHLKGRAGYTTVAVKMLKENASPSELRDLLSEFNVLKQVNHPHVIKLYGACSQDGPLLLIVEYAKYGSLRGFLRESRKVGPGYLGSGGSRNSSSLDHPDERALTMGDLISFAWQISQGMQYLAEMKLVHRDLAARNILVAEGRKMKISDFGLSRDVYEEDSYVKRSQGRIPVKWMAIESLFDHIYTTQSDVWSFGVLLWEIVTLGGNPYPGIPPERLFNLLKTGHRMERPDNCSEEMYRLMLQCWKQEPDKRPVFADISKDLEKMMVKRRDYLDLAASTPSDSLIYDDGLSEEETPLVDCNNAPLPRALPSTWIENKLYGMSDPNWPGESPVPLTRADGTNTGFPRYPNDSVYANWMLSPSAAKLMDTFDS

KAFAKLAARLYRKALARQLGVAA: the “JAK3 Kinase Activity (%) (+SD %)” value with JAK3 (peptide 100 μM) is 91 (8) %. In addition, the “PhKγ2 Kinase Activity (%) (+SD %)” value with PhKγ2 (peptide 100 μM) is 27 (3) %. For the same sequence, the “Ret Kinase Activity (%) (+SD %)” value with Ret was 107 (9) %.
For WLRRIKAWLRRIKALNRQLGVAA, the “JAK3 Kinase Activity (%) (+SD %)” value with JAK3 (peptide 30 μM) is 85 (5) %; in the assay with JAK3 (peptide 100 μM), 102 (2) %. For the same sequence, the “PhKγ2 Kinase Activity (%) (+SD %)” value is 15 (0) % with PhKγ2 (peptide 30 μM) and 20 (0) % in the assay with PhKγ2 (peptide 100 μM). Besides, in the assay with Ret, the “Ret Kinase Activity (%) (+SD %)” value is reported as 89 (0) %.
